Data reported in IntAct's records for PubMed 21423167.

B1: NF-kappa-B inhibitor alpha (Homo sapiens), P25963 (parent)
chain: MFQAAERPQEWAMEGPRDGLKKERLLDDRHDSGLDSMKDEEYEQMVKELQEIRLEPQEVPRGSEPWKQQLTEDGDSFLHLAIIHEEKALTMEVIRQVKGDLAFLNFQNNLQQTPLHLAVITNQPEIAEALLGAGCDPELRDFRGNTPLHLACEQGCLASVGVLTQSCTTPHLHSILKATNYNGHTCLHLASIHGYLGIVELLVSLGADVNAQEPCNGRTALHLAVDLQNPDLVSLLLKCGADVNRVTYQGYSPYQLTWGRPSTRIQQQLGQLTLENLQMLPESEDEESYDTESEFTEFTEDELPYDDCVFGGQRLTL
partner: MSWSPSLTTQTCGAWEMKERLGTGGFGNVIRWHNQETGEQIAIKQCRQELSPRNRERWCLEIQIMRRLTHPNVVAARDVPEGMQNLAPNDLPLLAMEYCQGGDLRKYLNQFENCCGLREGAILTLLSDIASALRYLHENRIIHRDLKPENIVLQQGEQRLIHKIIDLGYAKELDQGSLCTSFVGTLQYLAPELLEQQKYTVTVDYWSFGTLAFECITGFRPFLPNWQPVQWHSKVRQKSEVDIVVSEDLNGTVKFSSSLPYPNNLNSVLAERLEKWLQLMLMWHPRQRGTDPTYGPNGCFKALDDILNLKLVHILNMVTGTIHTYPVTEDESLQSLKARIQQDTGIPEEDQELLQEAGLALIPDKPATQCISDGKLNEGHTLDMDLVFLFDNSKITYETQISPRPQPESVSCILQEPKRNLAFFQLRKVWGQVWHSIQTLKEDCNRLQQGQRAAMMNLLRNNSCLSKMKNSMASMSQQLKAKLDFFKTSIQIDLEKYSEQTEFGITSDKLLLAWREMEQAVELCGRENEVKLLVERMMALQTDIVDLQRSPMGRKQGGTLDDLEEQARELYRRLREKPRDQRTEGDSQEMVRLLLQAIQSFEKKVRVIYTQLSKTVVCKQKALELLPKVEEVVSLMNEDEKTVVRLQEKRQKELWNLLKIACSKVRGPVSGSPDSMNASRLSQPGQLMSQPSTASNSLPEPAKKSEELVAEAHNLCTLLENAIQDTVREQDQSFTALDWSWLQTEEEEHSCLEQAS

Variants of: B1
Details: with ikkb_human IKBKB

Row | effect of a mutation on the interaction | Variant
1 | decreasing interaction | MFQAAERPQEWAMEGPRDGLKKERLLDDRHDAGLDAMKDEEYEQMVKELQEIRLEPQEVPRGSEPWKQQLTEDGDSFLHLAIIHEEKALTMEVIRQVKGDLAFLNFQNNLQQTPLHLAVITNQPEIAEALLGAGCDPELRDFRGNTPLHLACEQGCLASVGVLTQSCTTPHLHSILKATNYNGHTCLHLASIHGYLGIVELLVSLGADVNAQEPCNGRTALHLAVDLQNPDLVSLLLKCGADVNRVTYQGYSPYQLTWGRPSTRIQQQLGQLTLENLQMLPESEDEESYDTESEFTEFTEDELPYDDCVFGGQRLTL [S32A;S36A]
